B1: Large T antigen (Simian virus 40), P03070 (parent)
chain: MDKVLNREESLQLMDLLGLERSAWGNIPLMRKAYLKKCKEFHPDKGGDEEKMKKMNTLYKKMEDGVKYAHQPDFGGFWDATEIPTYGTDEWEQWWNAFNEENLFCSEEMPSSDDEATADSQHSTPPKKKRKVEDPKDFPSELLSFLSHAVFSNRTLACFAIYTTKEKAALLYKKIMEKYSVTFISRHNSYNHNILFFLTPHRHRVSAINNYAQKLCTFSFLICKGVNKEYLMYSALTRDPFSVIEESLPGGLKEHDFNPEEAEETKQVSWKLVTEYAMETKCDDVLLLLGMYLEFQYSFEMCLKCIKKEQPSHYKYHEKHYANAAIFADSKNQKTICQQAVDTVLAKKRVDSLQLTREQMLTNRFNDLLDRMDIMFGSTGSADIEEWMAGVAWLHCLLPKMDSVVYDFLKCMVYNIPKKRYWLFKGPIDSGKTTLAAALLELCGGKALNVNLPLDRLNFELGVAIDQFLVVFEDVKGTGGESRDLPSGQGINNLDNLRDYLDGSVKVNLEKKHLNKRTQIFPPGIVTMNEYSVPKTLQARFVKQIDFRPKDYLKHCLERSEFLLEKRIIQSGIALLLMLIWYRPVAEFAQSIQSRIVEWKERLDKEFSLSVYQKMKFNVAMGIGVLDWLRNSDDDDEDSQENADKNEDGGEKNMEDSGHETGIDSQSQGSFQAPQSSQSVHDHNQPYHICRGFTCFKKPPTPPPEPET

Variants of: B1
Conditions: with fbxw7_human FBXW7, Q969H0
Sequence of fbxw7_human FBXW7, Q969H0 (Q969H0 whole entry): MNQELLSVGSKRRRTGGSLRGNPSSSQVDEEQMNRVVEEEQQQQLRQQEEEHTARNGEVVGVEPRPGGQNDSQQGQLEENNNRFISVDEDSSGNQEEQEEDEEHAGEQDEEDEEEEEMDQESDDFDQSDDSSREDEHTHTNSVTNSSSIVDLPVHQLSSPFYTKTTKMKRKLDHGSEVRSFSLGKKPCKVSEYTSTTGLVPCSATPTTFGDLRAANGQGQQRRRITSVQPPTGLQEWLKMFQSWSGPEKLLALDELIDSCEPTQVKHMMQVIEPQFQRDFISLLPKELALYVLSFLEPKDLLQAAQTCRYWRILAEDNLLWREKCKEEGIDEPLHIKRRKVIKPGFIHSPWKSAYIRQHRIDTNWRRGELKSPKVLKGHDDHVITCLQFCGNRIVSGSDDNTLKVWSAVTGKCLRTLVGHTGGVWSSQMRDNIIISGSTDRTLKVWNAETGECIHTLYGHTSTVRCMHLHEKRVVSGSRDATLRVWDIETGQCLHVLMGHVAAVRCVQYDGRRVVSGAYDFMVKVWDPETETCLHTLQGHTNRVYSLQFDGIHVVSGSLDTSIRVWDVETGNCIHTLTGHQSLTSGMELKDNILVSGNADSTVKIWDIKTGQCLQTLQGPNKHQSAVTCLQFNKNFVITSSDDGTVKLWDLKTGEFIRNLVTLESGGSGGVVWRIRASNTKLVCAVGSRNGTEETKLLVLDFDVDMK

Variant	effect of a mutation on the interaction
T701A	decreasing interaction

Variants of: B1
Conditions: with fbw1b_human FBXW11, Q9UKB1
Sequence of fbw1b_human FBXW11, Q9UKB1 (Q9UKB1 whole entry): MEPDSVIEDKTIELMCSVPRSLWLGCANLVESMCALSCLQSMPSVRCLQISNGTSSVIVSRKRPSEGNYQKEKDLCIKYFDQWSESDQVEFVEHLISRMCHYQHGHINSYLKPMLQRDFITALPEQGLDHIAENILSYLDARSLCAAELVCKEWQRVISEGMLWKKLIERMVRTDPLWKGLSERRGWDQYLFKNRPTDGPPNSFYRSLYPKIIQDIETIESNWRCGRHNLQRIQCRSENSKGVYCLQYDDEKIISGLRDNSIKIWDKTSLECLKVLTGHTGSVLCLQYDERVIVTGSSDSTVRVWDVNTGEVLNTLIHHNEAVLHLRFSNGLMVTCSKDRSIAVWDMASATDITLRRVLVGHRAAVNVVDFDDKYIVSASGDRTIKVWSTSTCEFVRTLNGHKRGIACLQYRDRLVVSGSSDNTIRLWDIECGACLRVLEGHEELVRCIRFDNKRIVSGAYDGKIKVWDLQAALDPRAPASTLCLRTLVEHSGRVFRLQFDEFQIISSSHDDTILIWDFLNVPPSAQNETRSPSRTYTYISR

Variant	effect of a mutation on the interaction
T701A;E705A	decreasing interaction

Variants of: B1
Conditions: with fbw1a_human BTRC

Variant	effect of a mutation on the interaction
T701A;E705D	decreasing interaction

— IntAct's records for PubMed 15611062
